These results are taken from PMC4004102.

In test [1] the target is FAM-AIP-I (fluorescein-labeled AIP-I analog) (Staphylococcus aureus). Put plainly: fluorescence polarisation.
Test [2] has as its target AgrC-I (wild type) dimer embedded in nanodiscs (Staphylococcus aureus). Put plainly: SEC-MALS.

B1: AgrC-I (wild type) dimer embedded in nanodiscs (receptor)
chain: MELLNSYNFVLFVLTQMILMFTIPAIISGIKYSKLDYFFIIVISTLSLFLFKMFDSASLIILTSFIIIMYFVKIKWYSILLIMTSQIILYCANYMYIVIYAYITKISDSIFVIFPSFFVVYVTISILFSYIINRVLKKISTPYLILNKGFLIVISTILLLTFSLFFFYSQINSDEAKVIRQYSFIFIGITIFLSILTFVISQFLLKEMKYKRNQEEIETYYEYTLKIEAINNEMRKFRHDYVNILTTLSEFIREDDMPGLRDYFNKNIVPMKDNLQMNAIKLNGIENLKVREIKGLITAKILRAQEMNIPISIEIPDEVSSINLNMIDLSRSIGIILDNAIEASTEIDDPIIRVAFIESENSVTFIVMNKCADDIPRIHELFQESFSTKGEGRGLGLSTLKEIADNADNVLLDTIIENGFFIQKVEIINN
modifications: not checked
In the case of B1, in test [1], the Kd is 122 nM. In test [2], this molecule had a stoichiometry N of 2.

As usually defined, the Kd is the equilibrium constant for the complex coming apart. Low readings indicate higher affinity, high ones lower affinity. Usually stoichiometry N stands for the number of molecules, sites or subunits per partner or assembly.
